Drawing on paper PMC8310366, this text covers stoichiometry N for 5 substances.

For experiment [1], the target named is DENV NS1 T230A mutant (dengue virus serotype 2 (DENV-2, strain 16681)). In words: SDS-PAGE under non-heated, non-reduced conditions with immunoblotting. In general terms: In western blotting, separated proteins are transferred to a membrane and probed.
Experiment [2] concerns the target Dengue virus serotype 2 nonstructural protein 1 (DENV NS1), wild type (dengue virus serotype 2 (DENV-2, strain 16681)). The experiment is described as follows: SDS-PAGE under non-heated, non-reduced conditions with Coomassie staining.
Experiment [3] has the same target. The experiment is described as follows: SDS-PAGE under non-heated, non-reduced conditions with immunoblotting.
For experiment [4], the target named is DENV NS1 V6A mutant (dengue virus serotype 2 (DENV-2, strain 16681)). The description is as above.
Experiment [5] has as its target DENV NS1 S233A mutant (dengue virus serotype 2 (DENV-2, strain 16681)). Described as above.
The target in experiment [6] is DENV NS1 T29A mutant (dengue virus serotype 2 (DENV-2, strain 16681)). The description is as above.

In experiment [1], DENV NS1 T230A mutant (natural protein) returned a stoichiometry N of 2.
Regarding “Dengue virus serotype 2 nonstructural protein 1 (DENV NS1), wild type (natural protein)”, the stoichiometry N in experiment [2] and in experiment [3] was 2 in each case.
In the case of DENV NS1 V6A mutant (natural protein), the stoichiometry N in experiment [4] is 2.
Substance DENV NS1 S233A mutant (natural protein) had a stoichiometry N in experiment [5] of 2.
For the substance DENV NS1 T29A mutant (natural protein), the stoichiometry N in experiment [6] worked out at 2.

One may read the stoichiometry N as the number of molecules, sites or subunits per partner or assembly.
